Data published in patent US5726147A, “Human mutant tissue factor compositions useful as tissue factor antagonists” (priority 1995, dated 1998).
Where a chain is given by its changes, count along the chain named.

B1: S39-T40-S42: human tissue factor triple mutant with alanine at positions 39, 40 and 42 (protein, UniProt P13726 33-295, looked up, variant S39A T40A S42A)
Tissue factor: SGTTNTVAAYNLTWKSTNFKTILEWEPKPVNQVYTVQIAAKAGDWKSKCFYTTDTECDLTDEIVKDVKQTYLARVFSYPAGNVESTGSAGEPLYENSPEFTPYLETNLGQPTIQSFEQVGTKVNVTVEDERTLVRRNNTFLSLRDVFGKDLIYTLYYWKSSSSGKKTAKTNTNEFLIDVDKGENYCFSVQAVIPSRTVNRKSTDSPVECMGQEKGEFREIFYIIGAVVFVVIILVIILAISLHKCRKAGVGQSWKENSPLNVS
B2: Arg-136: human tissue factor mutant, Arg-136 exchanged for alanine (protein, UniProt P13726 33-295, looked up, variant R136A)
Tissue factor: B1 Tissue factor with A39S, A40T, A42S, R136A
B3: Arg-200/Lys-201: human tissue factor mutant, Arg-200 and Lys-201 replaced by alanine (protein, UniProt P13726 33-295, looked up, variant R200A K201A)
Tissue factor: B1 Tissue factor with A39S, A40T, A42S, R200A, K201A
B4: Tyr-71: human tissue factor mutant, Tyr-71 replaced by alanine (protein, UniProt P13726 33-295, looked up, variant Y71A)
Tissue factor: B1 Tissue factor with A39S, A40T, A42S, Y71A
B5: Asn-199: human tissue factor mutant, Asn-199 replaced by alanine (protein, UniProt P13726 33-295, looked up, variant N199A)
Tissue factor: B1 Tissue factor with A39S, A40T, A42S, N199A
B6: Thr-139/Ser-142: human tissue factor mutant, Thr-139 and Ser-142 exchanged for alanine (protein, UniProt P13726 33-295, looked up, variant T139A S142A)
Tissue factor: B1 Tissue factor with A39S, A40T, A42S, T139A, S142A
B7: Val-198: human tissue factor mutant, Val-198 replaced by alanine (protein, UniProt P13726 33-295, looked up, variant V198A)
Tissue factor: B1 Tissue factor with A39S, A40T, A42S, V198A
B8: Val-146: human tissue factor mutant, Val-146 exchanged for alanine (protein, UniProt P13726 33-295, looked up, variant V146A)
Tissue factor: B1 Tissue factor with A39S, A40T, A42S, V146A
B9: Val-67: human tissue factor mutant, Val-67 replaced by alanine (protein, UniProt P13726 33-295, looked up, variant V67A)
Tissue factor: B1 Tissue factor with A39S, A40T, A42S, V67A
B10: Arg-131: human tissue factor mutant, Arg-131 exchanged for alanine (protein, UniProt P13726 33-295, looked up, variant R131A)
Tissue factor: B1 Tissue factor with A39S, A40T, A42S, R131A
B11: S16-T17-K20: human tissue factor triple mutant with alanine at positions 16, 17 and 20 (protein, UniProt P13726 33-295, looked up, variant S16A T17A K20A)
Tissue factor: B1 Tissue factor with S16A, T17A, K20A, A39S, A40T, A42S
B12: Thr-106: human tissue factor mutant, Ala replacement for Thr-106 (protein, UniProt P13726 33-295, looked up, variant T106A)
Tissue factor: B1 Tissue factor with A39S, A40T, A42S, T106A
B13: Glu-105: human tissue factor mutant, Ala replacement for Glu-105 (protein, UniProt P13726 33-295, looked up, variant E105A)
Tissue factor: B1 Tissue factor with A39S, A40T, A42S, E105A
B14: K65-D66-K68: human tissue factor triple alanine mutant at positions 65, 66 and 68 (protein, UniProt P13726 33-295, looked up, variant K65A D66A K68A)
Tissue factor: B1 Tissue factor with A39S, A40T, A42S, K65A, D66A, K68A
B15: Phe-147: human tissue factor mutant, Phe-147 exchanged for alanine (protein, UniProt P13726 33-295, looked up, variant F147A)
Tissue factor: B1 Tissue factor with A39S, A40T, A42S, F147A
B16: Asp-145: human tissue factor mutant, Asp-145 exchanged for alanine (protein, UniProt P13726 33-295, looked up, variant D145A)
Tissue factor: B1 Tissue factor with A39S, A40T, A42S, D145A
B17: Ser-16: full-length human tissue factor mutant, Ser-16 replaced by alanine (protein, UniProt P13726 1-295, looked up, variant S16A)
chain: METPAWPRVPRPETAVARTLLLGWVFAQVAGASGTTNTVAAYNLTWKATNFKTILEWEPKPVNQVYTVQISTKSGDWKSKCFYTTDTECDLTDEIVKDVKQTYLARVFSYPAGNVESTGSAGEPLYENSPEFTPYLETNLGQPTIQSFEQVGTKVNVTVEDERTLVRRNNTFLSLRDVFGKDLIYTLYYWKSSSSGKKTAKTNTNEFLIDVDKGENYCFSVQAVIPSRTVNRKSTDSPVECMGQEKGEFREIFYIIGAVVFVVIILVIILAISLHKCRKAGVGQSWKENSPLNVS
modifications: full-length
notes: full-length human tissue factor mutant, Ser-16 replaced by alanine
B18: Phe-19: full-length human tissue factor mutant, Phe-19 replaced by alanine (protein, UniProt P13726 1-295, looked up, variant F19A)
chain: B17 chain with A48S, F51A
modifications: full-length
notes: full-length human tissue factor mutant, Phe-19 replaced by alanine
B19: Thr-17: full-length human tissue factor mutant, Thr-17 replaced by alanine (protein, UniProt P13726 1-295, looked up, variant T17A)
chain: B17 chain with A48S, T49A
modifications: full-length
notes: full-length human tissue factor mutant, Thr-17 replaced by alanine
B20: Ile-22 to Ala: full-length human tissue factor mutant, Ile-22 replaced by alanine (protein, UniProt P13726 1-295, looked up, variant I22A)
chain: B17 chain with A48S, I54A
modifications: full-length
notes: full-length human tissue factor mutant, Ile-22 replaced by alanine
B21: Arg-196: human tissue factor mutant, Arg-196 replacement by alanine in the Fc-Gc-loop (protein, UniProt P13726 33-295, looked up, variant R196A)
Tissue factor: B1 Tissue factor with A39S, A40T, A42S, R196A
B22: Asp-58 to Ala: human tissue factor mutant, Asp-58 to Ala exchange (EN-strand) (protein, UniProt P13726 33-295, looked up, variant D58A)
Tissue factor: B1 Tissue factor with A39S, A40T, A42S, D58A
B23: Val-64/Tyr-71 to Ala: human tissue factor Val-64/Tyr-71 to Ala double mutant (protein, UniProt P13726 33-295, looked up, variant V64A Y71A)
Tissue factor: B1 Tissue factor with A39S, A40T, A42S, V64A, Y71A

What follows are molecules tested on coagulation in recalcified plasma (assay: One stage clotting (coagulation) assay of specific functional activity of full-length TF mutants in CHO cell lysates). Conditions: full-length Ala mutant expressed in CHO cells, cell lysate, coagulant activity normalized to antigen, relative to wild-type TF.
Type: biochemical
Procedure: The full-length TF mutants prepared above were analyzed for function by coagulation assay. […] Coagulation factor deficient plasmas were purchased from George King Bio-medical. The chromogenic substrate, Spectrozyme FXa, was from American Diagnostica Inc. (Greenwich, Conn.).
An alternative approach was to use a polyvalent antibody purified by affinity for capturing TF followed by detection with the TF8-5G9 monoclonal antibody described above.
Initiation of coagulation by wild-type and mutant TF in recalcified plasma was determined after lysis of cell pellets from 2×10^6 cells/ml for each expressed full-length mutant with 15 mM octyl-glucopyranoside in HBS for 15 minutes at 37 C. followed by a 3-fold dilution.
All data represented are based on at least three independent determinations performed in duplicate.

Row | Molecule | loss of function (reduction in specific functional activity as % of wild-type activity)
1 | B1 | 43%
2 | B2 | 30-50%
3 | B3 | 30-80%
4 | B4 | 98%
5 | B5 | 30-80%
6 | B6 | 30-50%
7 | B7 | 30-80%
8 | B8 | 30-50%
9 | B9 | 53%
10 | B10 | 30-50%
11 | B11 | 98%
12 | B12 | more than 50%
13 | B13 | more than 50%
14 | B14 | 70%
15 | B15 | 30-50%
16 | B16 | 30-50%
17 | B17 | more than 70%
18 | B18 | more than 70%
19 | B19 | more than 70%
20 | B20 | 35%

Same assay, conditions: residue substituted at the named position

Row | Molecule | reduction in tissue factor procoagulant cofactor activity when compared to wt-TF [%]
21 | B5 | ≥ 75
22 | B17 | ≥ 75
23 | B19 | ≥ 75

Each molecule was assayed on recombinant VIIa (assay: Linked chromogenic assay with purified VIIa and factor X, apparent dissociation constant of the TF-VIIa interaction). Conditions: full-length Ala mutants, linked chromogenic assay.
Type: biochemical
Procedure: The lysate was prepared by treating cell pellets with 15 mM octyl-glucopyranoside for 15 minutes at 37 C. followed by a 3-fold dilution. […] Formed TF-VIIa complexes were quantified with substrate factor X added at 100 nM for a fixed time. Samples were then removed from the reaction and quenched in 100 mM EDTA in TBS (20 mM Tris-HCl 140 mM NaCl, pH 7.4). […] The rate of Spectrozyme hydrolysis, measured as the increase in absorbance (mOD/min), was determined at ambient temperature in a kinetic plate reader (Molecular Devices, Mountain View, Calif.) followed by quenching and monitoring of product factor Xa formation using the Spectrozyme FXa.
Enzfitter (Elsevier Biosoft) programs were employed to calculate the KDapp from the experimentally determined bound VIIa, and free VIIa which was obtained by subtracting bound VIIa from the initial VIIa concentration.

Row | change in KDapp for the TF-VIIa interaction compared to wild-type TF (ratio KD mutant/KD wild-type) [fold] | Molecule
24 | 3.5 | B21
25 | 41 | B22
26 | 2.1 | B23
27 | 11 | B20

Same assay, conditions: triple alanine mutants

Row | binding of Factor VIIa | Molecule
28 | not substantially bind Factor VIIa | B11
29 | not substantially bind Factor VIIa | B14
